Assays:
CBP-Upf1-CH-HD = biological target: T1, CBP-Upf1-CH-HD (S. cerevisiae, UniProt P30771 54-851); assay: native gel or EMSA
T1 sequence: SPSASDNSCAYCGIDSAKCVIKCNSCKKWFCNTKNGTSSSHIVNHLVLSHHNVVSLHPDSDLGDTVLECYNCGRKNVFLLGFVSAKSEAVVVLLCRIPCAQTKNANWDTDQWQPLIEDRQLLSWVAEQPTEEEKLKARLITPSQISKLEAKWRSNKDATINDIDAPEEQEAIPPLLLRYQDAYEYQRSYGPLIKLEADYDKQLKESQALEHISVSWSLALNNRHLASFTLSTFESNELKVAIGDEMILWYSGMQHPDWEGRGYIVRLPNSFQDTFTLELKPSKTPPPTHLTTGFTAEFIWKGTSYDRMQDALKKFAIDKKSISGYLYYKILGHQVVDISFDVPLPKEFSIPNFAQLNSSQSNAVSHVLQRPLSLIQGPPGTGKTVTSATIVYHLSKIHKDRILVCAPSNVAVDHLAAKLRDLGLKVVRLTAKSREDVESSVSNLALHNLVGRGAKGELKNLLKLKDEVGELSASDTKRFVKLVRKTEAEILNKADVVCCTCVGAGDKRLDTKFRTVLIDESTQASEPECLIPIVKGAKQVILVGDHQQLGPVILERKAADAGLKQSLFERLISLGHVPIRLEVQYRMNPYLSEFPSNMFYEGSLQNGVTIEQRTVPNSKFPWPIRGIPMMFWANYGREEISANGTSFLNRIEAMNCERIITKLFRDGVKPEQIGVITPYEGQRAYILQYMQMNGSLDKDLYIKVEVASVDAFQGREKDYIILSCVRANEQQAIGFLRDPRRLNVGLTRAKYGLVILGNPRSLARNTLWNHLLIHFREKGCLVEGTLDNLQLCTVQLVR

[1] = biological target: T2, CBP-Upf1-FL (S.c. Upf1 full-length) (S. cerevisiae, UniProt P30771 1-971); assay: pull-down
T2 sequence: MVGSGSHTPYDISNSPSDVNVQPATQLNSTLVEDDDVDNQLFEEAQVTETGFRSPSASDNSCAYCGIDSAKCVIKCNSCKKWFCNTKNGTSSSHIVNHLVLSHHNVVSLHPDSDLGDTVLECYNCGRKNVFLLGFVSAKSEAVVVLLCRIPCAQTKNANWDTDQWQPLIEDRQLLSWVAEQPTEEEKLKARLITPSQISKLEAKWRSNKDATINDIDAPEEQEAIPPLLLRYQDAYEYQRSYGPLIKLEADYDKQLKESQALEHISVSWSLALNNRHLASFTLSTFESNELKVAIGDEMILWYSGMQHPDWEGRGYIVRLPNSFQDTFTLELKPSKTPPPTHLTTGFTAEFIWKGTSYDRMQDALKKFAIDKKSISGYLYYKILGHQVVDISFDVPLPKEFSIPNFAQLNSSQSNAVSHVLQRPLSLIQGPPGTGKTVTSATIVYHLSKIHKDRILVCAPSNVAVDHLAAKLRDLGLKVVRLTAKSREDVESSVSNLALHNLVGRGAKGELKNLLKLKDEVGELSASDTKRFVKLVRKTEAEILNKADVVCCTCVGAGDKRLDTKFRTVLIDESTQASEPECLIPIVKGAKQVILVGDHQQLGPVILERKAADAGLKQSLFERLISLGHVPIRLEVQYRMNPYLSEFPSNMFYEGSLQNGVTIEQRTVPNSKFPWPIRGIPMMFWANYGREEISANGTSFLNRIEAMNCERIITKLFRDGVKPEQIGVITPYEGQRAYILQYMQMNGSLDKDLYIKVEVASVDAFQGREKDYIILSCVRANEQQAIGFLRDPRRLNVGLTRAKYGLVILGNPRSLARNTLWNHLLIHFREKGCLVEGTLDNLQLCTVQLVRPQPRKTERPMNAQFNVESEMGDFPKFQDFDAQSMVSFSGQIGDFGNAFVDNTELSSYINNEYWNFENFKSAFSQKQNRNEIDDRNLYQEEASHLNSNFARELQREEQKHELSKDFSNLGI

B1: Nmd4-His (C-terminal His-tagged Nmd4) (natural protein)
chain: MTQYNFIIDASAFEKGLGNIKRWCSDCTEAVTLNFYIPTFTLNELDFLQQRRKSFAARESLKFIDRLDDSKFANLKVFIEFPEVLDIILWSDVMEHNDSSGKINIAKLPKRLKNLLKSCIYKCYLEGNEGLHWFLISEDPQIREMAMQCNIPSCSIVDVDSILSKDMNDKSFRESEKFNNMMLKNGTKEESENGREIIRTNFNKTVYASRGTGELWSP
binding result (CBP-Upf1-CH-HD): binds
binding result [1]: binds

From publication PMC11897886 (Nucleic Acids Research, 2024)
